Experimental findings from patent US20100087371 are described below.

Changes are numbered by the printed parent chain.

Chain of hGHQ40N, P01241 (P01241 27-217 Q66N): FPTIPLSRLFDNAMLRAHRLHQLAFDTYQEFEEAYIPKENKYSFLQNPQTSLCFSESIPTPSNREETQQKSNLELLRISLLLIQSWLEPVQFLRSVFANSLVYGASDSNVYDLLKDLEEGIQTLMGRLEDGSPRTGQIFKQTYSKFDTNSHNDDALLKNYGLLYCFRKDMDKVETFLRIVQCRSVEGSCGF
Chain of hGHQ141N, P01241 (P01241 27-217 Q167N): as the sequence (P01241 27-217 Q66N) above, with N40Q, Q141N counted along it

B1: AlaPro-mTGase from S. mobaraensis (protein)
chain: APDSDDRVTPPAEPLDRMPDPYRPSYGRAETVVNNYIRKWQQVYSHRDGRKQQMTEEQREWLSYGCVGVTWVNSGQYPTNRLAFASFDEDRFKNELKNGRPRSGETRAEFEGRVAKESFDEEKGFQRAREVASVMNRALENAHDESAYLDNLKKELANGNDALRNEDARSPFYSALRNTPSFKERNGGNHDPSRMKAVIYSKHFWSGQDRSSSADKRKYGDPDAFRPAPGTGLVDMSRDRNIPRSPTSPGEGFVNFDYGWFGAQTEADADKTVWTHGNHYHAPNGSLGAMHVYESKFRNWSEGYSDFDRGAYVITFIPKSWNTAPDKVKQGWP
As for B1, the Activity towards hGHQ40N (RFU/sec/µg), dansyl-cadaverine incorporation with hGHQ40N, P01241 was 5.05 RFU/sec/µg. In the data set with hGHQ141N, P01241, the Activity towards hGHQ141N (RFU/sec/µg), dansyl-cadaverine incorporation is 1.56 RFU/sec/µg.

B2: GlyPro-mTGase from S. mobaraensis (protein)
chain: B1 chain with A1G
Regarding B2, the Activity towards hGHQ40N (RFU/sec/µg), dansyl-cadaverine incorporation with hGHQ40N, P01241 came out at 4.28 RFU/sec/µg. Moreover, the Activity towards hGHQ141N (RFU/sec/µg), dansyl-cadaverine incorporation with hGHQ141N, P01241 was 1.13 RFU/sec/µg.

B3: Met-mTGase from S. mobaraensis (protein)
chain: MDSDDRVTPPAEPLDRMPDPYRPSYGRAETVVNNYIRKWQQVYSHRDGRKQQMTEEQREWLSYGCVGVTWVNSGQYPTNRLAFASFDEDRFKNELKNGRPRSGETRAEFEGRVAKESFDEEKGFQRAREVASVMNRALENAHDESAYLDNLKKELANGNDALRNEDARSPFYSALRNTPSFKERNGGNHDPSRMKAVIYSKHFWSGQDRSSSADKRKYGDPDAFRPAPGTGLVDMSRDRNIPRSPTSPGEGFVNFDYGWFGAQTEADADKTVWTHGNHYHAPNGSLGAMHVYESKFRNWSEGYSDFDRGAYVITFIPKSWNTAPDKVKQGWP
On to B3, for which the Activity towards hGHQ40N (RFU/sec/µg), dansyl-cadaverine incorporation with hGHQ40N, P01241 was determined as 5.44 RFU/sec/µg. The protein also registered an Activity towards hGHQ141N (RFU/sec/µg), dansyl-cadaverine incorporation in the data set with hGHQ141N, P01241 of 1.24 RFU/sec/µg.

B4: mTGase from S. mobaraensis (protein)
chain: DSDDRVTPPAEPLDRMPDPYRPSYGRAETVVNNYIRKWQQVYSHRDGRKQQMTEEQREWLSYGCVGVTWVNSGQYPTNRLAFASFDEDRFKNELKNGRPRSGETRAEFEGRVAKESFDEEKGFQRAREVASVMNRALENAHDESAYLDNLKKELANGNDALRNEDARSPFYSALRNTPSFKERNGGNHDPSRMKAVIYSKHFWSGQDRSSSADKRKYGDPDAFRPAPGTGLVDMSRDRNIPRSPTSPGEGFVNFDYGWFGAQTEADADKTVWTHGNHYHAPNGSLGAMHVYESKFRNWSEGYSDFDRGAYVITFIPKSWNTAPDKVKQGWP
Regarding B4, in the data set with hGHQ40N, P01241, the Activity towards hGHQ40N (RFU/sec/µg), dansyl-cadaverine incorporation came out at 3.35 RFU/sec/µg. This protein showed an Activity towards hGHQ141N (RFU/sec/µg), dansyl-cadaverine incorporation with hGHQ141N, P01241 of 0.98 RFU/sec/µg.

B5: Mature mTGase from S. ladakanum (protein)
chain: DSDERVTPPAEPLDRMPDPYRPSYGRAETIVNNYIRKWQQVYSHRDGRKQQMTEEQREWLSYGCVGVTWVNSGQYPTNRLAFAFFDEDKYKNELKNGRPRSGETRAEFEGRVAKDSFDEAKGFQRARDVASVMNKALENAHDEGAYLDNLKKELANGNDALRNEDARSPFYSALRNTPSFKDRNGGNHDPSKMKAVIYSKHFWSGQDRSGSSDKRKYGDPEAFRPDRGTGLVDMSRDRNIPRSPTSPGESFVNFDYGWFGAQTEADADKTVWTHGNHYHAPNGSLGAMHVYESKFRNWSDGYSDFDRGAYVVTFVPKSWNTAPDKVKQGWP
For the protein B5, in the data set with hGHQ40N, P01241, the Activity towards hGHQ40N (RFU/sec/µg), dansyl-cadaverine incorporation is 3.55 RFU/sec/µg. This protein also yielded an Activity towards hGHQ141N (RFU/sec/µg), dansyl-cadaverine incorporation with hGHQ141N, P01241 of 0.63 RFU/sec/µg.

B6: Met-mTGase from S. ladakanum (protein)
chain: MDSDERVTPPAEPLDRMPDPYRPSYGRAETIVNNYIRKWQQVYSHRDGRKQQMTEEQREWLSYGCVGVTWVNSGQYPTNRLAFAFFDEDKYKNELKNGRPRSGETRAEFEGRVAKDSFDEAKGFQRARDVASVMNKALENAHDEGAYLDNLKKELANGNDALRNEDARSPFYSALRNTPSFKDRNGGNHDPSKMKAVIYSKHFWSGQDRSGSSDKRKYGDPEAFRPDRGTGLVDMSRDRNIPRSPTSPGESFVNFDYGWFGAQTEADADKTVWTHGNHYHAPNGSLGAMHVYESKFRNWSDGYSDFDRGAYVVTFVPKSWNTAPDKVKQGWP
In the data set with hGHQ40N, P01241, B6 yielded an Activity towards hGHQ40N (RFU/sec/µg), dansyl-cadaverine incorporation of 4.74 RFU/sec/µg. Moreover, the Activity towards hGHQ141N (RFU/sec/µg), dansyl-cadaverine incorporation with hGHQ141N, P01241 worked out at 0.8 RFU/sec/µg.

B7: AlaPro-mTGase from S. ladakanum (protein)
chain: APDSDERVTPPAEPLDRMPDPYRPSYGRAETIVNNYIRKWQQVYSHRDGRKQQMTEEQREWLSYGCVGVTWVNSGQYPTNRLAFAFFDEDKYKNELKNGRPRSGETRAEFEGRVAKDSFDEAKGFQRARDVASVMNKALENAHDEGAYLDNLKKELANGNDALRNEDARSPFYSALRNTPSFKDRNGGNHDPSKMKAVIYSKHFWSGQDRSGSSDKRKYGDPEAFRPDRGTGLVDMSRDRNIPRSPTSPGESFVNFDYGWFGAQTEADADKTVWTHGNHYHAPNGSLGAMHVYESKFRNWSDGYSDFDRGAYVVTFVPKSWNTAPDKVKQGWP
The protein B7 registered an Activity towards hGHQ40N (RFU/sec/µg), dansyl-cadaverine incorporation in the data set with hGHQ40N, P01241 of 6.91 RFU/sec/µg. Further, the Activity towards hGHQ141N (RFU/sec/µg), dansyl-cadaverine incorporation with hGHQ141N, P01241 was 1.02 RFU/sec/µg.

B8: GlyPro-mTGase from S. ladakanum (protein)
chain: B7 chain with A1G
Regarding B8, the Activity towards hGHQ40N (RFU/sec/µg), dansyl-cadaverine incorporation in the data set with hGHQ40N, P01241 was 4.25 RFU/sec/µg. The protein further had an Activity towards hGHQ141N (RFU/sec/µg), dansyl-cadaverine incorporation in the data set with hGHQ141N, P01241 of 0.48 RFU/sec/µg.
